The text below walks through data of patent US20240018184A1.

Test [1] addresses mAb (sample of Example 11, 4.28 mg/ml). The test can be described thus: load volume to 35% breakthrough, PCC columns, CIP with 2 M NaOH.
The target of test [2] is Cy5-hIgG (Cy5-labelled human immunoglobulin G) (human). The test can be described thus: confocal microscopy of beads with Cy5-hIgG, after 8 h in 2 M NaOH.
Test [3] deals with human polyclonal IgG (Gammanorm) (human). The test can be described thus: pH gradient elution (citrate pH 6-3) from column.
Test [4] concerns the target Cy5-hIgG (Cy5-labelled human immunoglobulin G) (human). The test can be described thus: confocal microscopy of beads with Cy5-hIgG, after 16 h in 1 M NaOH.

Turning to “MabSelect SuRe (ligand of the commercial reference matrix)”, the original capacity remaining in test [1] is less than 80%.

With “MabSelect SuRe LX (ligand of the commercial reference matrix)”, the Ig-binding capacity lost in test [2] was found to be 50%. Also, in test [3], the Elution pH (peak 1) came out at 4.01 pH and the Elution pH (peak 2) stood at 3.7 pH. This substance also displayed a binding capacity lost in test [4] of 50%.

In test [3], “Zvar(Q9A, N11E, Q40V, A42K, N43A, L44I)6 (designed binder)” registered an Elution pH (peak 1) of 4.24 pH and an Elution pH (peak 2) of 3.81 pH.
